Experimental data reported in patent EP4806922A2 (Lyvgen Biopharma Holdings Limited, dated 2026).

T1: human BCMA protein (human, UniProt Q02223 1-54)
T1 construct: also called human BCMA expressing NCI-H929 cells; human BCMA overexpressing HEK293 cells
T1 sequence (looked up): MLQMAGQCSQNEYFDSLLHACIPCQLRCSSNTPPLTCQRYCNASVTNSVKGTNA


What was measured:
Experiment in all cases: FCM or ELISA, graded summary
human CD3D/E protein = molecular target: T2, human CD3D/E protein (human, UniProt P04234 22-105; P07766 23-126)
T2 construct: also called human CD3 expressing Jurkat cells
T2 sequence (P04234 22-105, chain 1 of 2): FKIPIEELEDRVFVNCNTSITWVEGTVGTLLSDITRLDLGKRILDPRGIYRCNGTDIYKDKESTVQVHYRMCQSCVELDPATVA
T2 sequence (P07766 23-126, chain 2 of 2): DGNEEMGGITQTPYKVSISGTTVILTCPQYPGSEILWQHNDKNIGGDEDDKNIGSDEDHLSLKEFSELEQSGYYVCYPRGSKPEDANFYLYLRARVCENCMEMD

human CD137 protein = molecular target: T3, human CD137 protein (human, UniProt Q07011 24-186)
T3 construct: also called human CD137 expressing CHO cells
T3 sequence (Q07011 24-186 limits assumed): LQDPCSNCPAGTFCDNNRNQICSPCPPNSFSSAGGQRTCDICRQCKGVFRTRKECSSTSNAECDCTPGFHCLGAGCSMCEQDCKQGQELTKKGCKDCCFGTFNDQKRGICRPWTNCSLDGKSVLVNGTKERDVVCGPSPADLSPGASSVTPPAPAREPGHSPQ

human PD-L1 protein = human PD-L1 protein (human, UniProt Q9NZQ7 19-238)
human PD-L1 protein, sequence (Q9NZQ7 19-238 limits assumed): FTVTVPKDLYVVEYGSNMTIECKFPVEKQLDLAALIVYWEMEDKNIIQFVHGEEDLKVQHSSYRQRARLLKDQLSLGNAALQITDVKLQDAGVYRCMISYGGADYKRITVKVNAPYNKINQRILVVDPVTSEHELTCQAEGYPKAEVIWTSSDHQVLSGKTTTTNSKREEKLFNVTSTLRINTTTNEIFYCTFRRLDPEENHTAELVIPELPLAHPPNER

human BCMA protein = molecular target: T1, human BCMA protein

Binder	binding result (human CD3D/E protein)	binding result (human CD137 protein)	binding result (human PD-L1 protein)	binding result (human BCMA protein)
Ly3096 (BCMA/CD3/CD137) (other, Multi-specific (tri-specific) antibody with three different chains HC1, HC2, LC1; also called BCMA(b) /CD3 /CD137) heavy 1: QLQLQESGPGLVKPSETLSLTCTVSGGSISSGSYFWGWIRQPPGKGLEWIGSIYYSGITYYNPSLKSRVTISVDTSKNQFSLKLSSVTAADTAVYYCARHDGAVAGLFDYWGQGTLVTVSSASTKGPSVFPLAPSSKSTSGGTAALGCLVKDYFPEPVTVSWNSGALTSGVHTFPAVLQSSGLYSLSSVVTVPSSSLGTQTYICNVNHKPSNTKVDKKVEPKSCGGGGSGGGGSGGGGSGGGGSEVQLVESGGGLVQPGGSLRLSCAASGFTFSTYAMNWVRQAPGKGLEWVGRIRSKYNNYATYYADSVKGRFTISRDDSKNSLYLQMNSLKTEDTAVYYCVRHGNFGNSYVSWFAYWGQGTLVTVSSGGGGSDKTHTCPPCPAPELLGPSVFLFPPKPKDTLMISRTPEVTCVVVDVSHEDPEVKFNWYVDGVEVHNAKTKPREEQYNSTYRVVSVLTVLHQDWLNGKEYKCKVSNKALGAPIEKTISKAKGQPREPQVYTLPPSREEMTKNQVSLWCLVKGFYPSDIAVEWESNGQPENNYKTTPPVLDSDGSFFLYSKLTVDKSRWQQGNVFSCSVMHEALHNHYTQKSLSLSPGKGGGGSGGGGSGGGGSGGGGSQVQLVQSGAEVKKPGASVKVSCKASGYTFAGFEMHWVRQAPGQGLEWMGAIDPKTGGTDYNQKFKDRVTMTRDTSISTAYMELSRLRSDDTAVYYCARDLGYFDVWGQGTLVTVSS heavy 2: QLQLQESGPGLVKPSETLSLTCTVSGGSISSGSYFWGWIRQPPGKGLEWIGSIYYSGITYYNPSLKSRVTISVDTSKNQFSLKLSSVTAADTAVYYCARHDGAVAGLFDYWGQGTLVTVSSASTKGPSVFPLAPSSKSTSGGTAALGCLVKDYFPEPVTVSWNSGALTSGVHTFPAVLQSSGLYSLSSVVTVPSSSLGTQTYICNVNHKPSNTKVDKKVEPKSCGGGGSGGGGSGGGGSGGGGSQAVVTQEPSLTVSPGGTVTLTCRSSTGAVTTSNYANWVQQKPGQAPRGLIGGTNKRAPWTPARFSGSLLGGKAALTITGAQAEDEADYYCALWYSNLWVFGGGTKLTVLGGGGSDKTHTCPPCPAPELLGPSVFLFPPKPKDTLMISRTPEVTCVVVDVSHEDPEVKFNWYVDGVEVHNAKTKPREEQYNSTYRVVSVLTVLHQDWLNGKEYKCKVSNKALGAPIEKTISKAKGQPREPQVYTLPPSREEMTKNQVSLSCAVKGFYPSDIAVEWESNGQPENNYKTTPPVLDSDGSFFLVSKLTVDKSRWQQGNVFSCSVMHEALHNRFTQKSLSLSPGKGGGGSGGGGSGGGGSGGGGSDIQMTQSPSSLSASVGDRVTITCRASQDIRSNLNWYQQKPGGAVKLLIYYTSRLHSGVPSRFSGSGSGTDYTLTISSLQPEDFATYFCQQSEKLPRTFGGGTKVEIR light: SYVLTQPPSVSVAPGQTARITCGGNNIGSKSVHWYQQPPGQAPVVVVYDDSDRPSGIPERFSGSNSGNTATLTISRVEAGDEAVYYCQVWDSSSDHVVFGGGTKLTVLGQPKAAPSVTLFPPSSEELQANKATLVCLISDFYPGAVTVAWKGDSSPVKAGVETTTPSKQSNNKYAASSYLSLTPEQWKSHRSYSCQVTHEGSTVEKTVAPTECS	binds	binds	–	–
Ly3106 (BCMA/CD3/PD-L1) (other, Multi-specific (tri-specific) antibody with three different chains HC1, HC2, LC1; also called BCMA(b) /CD3 /PD-L1) heavy 1: QLQLQESGPGLVKPSETLSLTCTVSGGSISSGSYFWGWIRQPPGKGLEWIGSIYYSGITYYNPSLKSRVTISVDTSKNQFSLKLSSVTAADTAVYYCARHDGAVAGLFDYWGQGTLVTVSSASTKGPSVFPLAPSSKSTSGGTAALGCLVKDYFPEPVTVSWNSGALTSGVHTFPAVLQSSGLYSLSSVVTVPSSSLGTQTYICNVNHKPSNTKVDKKVEPKSCGGGGSGGGGSGGGGSGGGGSEVQLVESGGGLVQPGGSLRLSCAASGFTFSTYAMNWVRQAPGKGLEWVGRIRSKYNNYATYYADSVKGRFTISRDDSKNSLYLQMNSLKTEDTAVYYCVRHGNFGNSYVSWFAYWGQGTLVTVSSGGGGSDKTHTCPPCPAPELLGPSVFLFPPKPKDTLMISRTPEVTCVVVDVSHEDPEVKFNWYVDGVEVHNAKTKPREEQYNSTYRVVSVLTVLHQDWLNGKEYKCKVSNKALGAPIEKTISKAKGQPREPQVYTLPPSREEMTKNQVSLWCLVKGFYPSDIAVEWESNGQPENNYKTTPPVLDSDGSFFLYSKLTVDKSRWQQGNVFSCSVMHEALHNHYTQKSLSLSPGKGGGGSGGGGSGGGGSGGGGSQVQLVQSGAEVKKPGASVKVSCKASGYTFTDFWMSWVRQAPGQGLEWMGQIYPNTGTTHSNEKFKGRVTMTRDTSTSTVYMELSSLRSEDTAVYYCARSYHISTTPNWFAYWGQGTLVTVSS heavy 2: QLQLQESGPGLVKPSETLSLTCTVSGGSISSGSYFWGWIRQPPGKGLEWIGSIYYSGITYYNPSLKSRVTISVDTSKNQFSLKLSSVTAADTAVYYCARHDGAVAGLFDYWGQGTLVTVSSASTKGPSVFPLAPSSKSTSGGTAALGCLVKDYFPEPVTVSWNSGALTSGVHTFPAVLQSSGLYSLSSVVTVPSSSLGTQTYICNVNHKPSNTKVDKKVEPKSCGGGGSGGGGSGGGGSGGGGSQAVVTQEPSLTVSPGGTVTLTCRSSTGAVTTSNYANWVQQKPGQAPRGLIGGTNKRAPWTPARFSGSLLGGKAALTITGAQAEDEADYYCALWYSNLWVFGGGTKLTVLGGGGSDKTHTCPPCPAPELLGPSVFLFPPKPKDTLMISRTPEVTCVVVDVSHEDPEVKFNWYVDGVEVHNAKTKPREEQYNSTYRVVSVLTVLHQDWLNGKEYKCKVSNKALGAPIEKTISKAKGQPREPQVYTLPPSREEMTKNQVSLSCAVKGFYPSDIAVEWESNGQPENNYKTTPPVLDSDGSFFLVSKLTVDKSRWQQGNVFSCSVMHEALHNRFTQKSLSLSPGKGGGGSGGGGSGGGGSGGGGSDIQMTQSPSSLSASVGDRVTITCKASQNVYKKLEWYQQKPGKVPKVLIYHTNILQTGVPSRFSGSGSGTDYTLTISSLQPEDVATYYCYQWNSGPTFGGGTKVEIK light: SYVLTQPPSVSVAPGQTARITCGGNNIGSKSVHWYQQPPGQAPVVVVYDDSDRPSGIPERFSGSNSGNTATLTISRVEAGDEAVYYCQVWDSSSDHVVFGGGTKLTVLGQPKAAPSVTLFPPSSEELQANKATLVCLISDFYPGAVTVAWKGDSSPVKAGVETTTPSKQSNNKYAASSYLSLTPEQWKSHRSYSCQVTHEGSTVEKTVAPTECS	binds	–	binds	–
Ly2949 (BCMA/CD3/CD137) (other, Multi-specific (tri-specific) antibody with three different chains HC1, HC2, LC1; also called BCMA(a) /CD3 /CD137; anti-BCMA/CD3/CD137 multi-specific antibody) heavy 1: QVQLVQSGAEVKKPGASVKVSCKASGYTFTNHIIHWVRQAPGQGLEWMGYINPYPGYHAYNEKFQGRATMTSDTSTSTVYMELSSLRSEDTAVYYCARDGYYRDTDVLDYWGQGTLVTVSSASTKGPSVFPLAPSSKSTSGGTAALGCLVKDYFPEPVTVSWNSGALTSGVHTFPAVLQSSGLYSLSSVVTVPSSSLGTQTYICNVNHKPSNTKVDKKVEPKSCGGGGSGGGGSGGGGSGGGGSEVQLVESGGGLVQPGGSLRLSCAASGFTFSTYAMNWVRQAPGKGLEWVGRIRSKYNNYATYYADSVKGRFTISRDDSKNSLYLQMNSLKTEDTAVYYCVRHGNFGNSYVSWFAYWGQGTLVTVSSGGGGSDKTHTCPPCPAPELLGPSVFLFPPKPKDTLMISRTPEVTCVVVDVSHEDPEVKFNWYVDGVEVHNAKTKPREEQYNSTYRVVSVLTVLHQDWLNGKEYKCKVSNKALGAPIEKTISKAKGQPREPQVYTLPPSREEMTKNQVSLWCLVKGFYPSDIAVEWESNGQPENNYKTTPPVLDSDGSFFLYSKLTVDKSRWQQGNVFSCSVMHEALHNHYTQKSLSLSPGKGGGGSGGGGSGGGGSGGGGSQVQLVQSGAEVKKPGASVKVSCKASGYTFAGFEMHWVRQAPGQGLEWMGAIDPKTGGTDYNQKFKDRVTMTRDTSISTAYMELSRLRSDDTAVYYCARDLGYFDVWGQGTLVTVSS heavy 2: QVQLVQSGAEVKKPGASVKVSCKASGYTFTNHIIHWVRQAPGQGLEWMGYINPYPGYHAYNEKFQGRATMTSDTSTSTVYMELSSLRSEDTAVYYCARDGYYRDTDVLDYWGQGTLVTVSSASTKGPSVFPLAPSSKSTSGGTAALGCLVKDYFPEPVTVSWNSGALTSGVHTFPAVLQSSGLYSLSSVVTVPSSSLGTQTYICNVNHKPSNTKVDKKVEPKSCGGGGSGGGGSGGGGSGGGGSQAVVTQEPSLTVSPGGTVTLTCRSSTGAVTTSNYANWVQQKPGQAPRGLIGGTNKRAPWTPARFSGSLLGGKAALTITGAQAEDEADYYCALWYSNLWVFGGGTKLTVLGGGGSDKTHTCPPCPAPELLGPSVFLFPPKPKDTLMISRTPEVTCVVVDVSHEDPEVKFNWYVDGVEVHNAKTKPREEQYNSTYRVVSVLTVLHQDWLNGKEYKCKVSNKALGAPIEKTISKAKGQPREPQVYTLPPSREEMTKNQVSLSCAVKGFYPSDIAVEWESNGQPENNYKTTPPVLDSDGSFFLVSKLTVDKSRWQQGNVFSCSVMHEALHNRFTQKSLSLSPGKGGGGSGGGGSGGGGSGGGGSDIQMTQSPSSLSASVGDRVTITCRASQDIRSNLNWYQQKPGGAVKLLIYYTSRLHSGVPSRFSGSGSGTDYTLTISSLQPEDFATYFCQQSEKLPRTFGGGTKVEIR light: not shown	binds	binds	–	binds
